Measurements taken from patent US20220251236A1 (Boehringer Ingelheim, published 2022).

Experiments:
EGF5+6 = molecular target: T1, EGF5+6; assay: flow cytometry on HEK293 cells expressing the DLL3 subdomain construct, PE anti-human secondary, control: secondary antibody only
T1 construct: also called Hu DLL3 EGF5+6 on HEK293 cells
T1 membrane-anchored DLL3 subdomain construct: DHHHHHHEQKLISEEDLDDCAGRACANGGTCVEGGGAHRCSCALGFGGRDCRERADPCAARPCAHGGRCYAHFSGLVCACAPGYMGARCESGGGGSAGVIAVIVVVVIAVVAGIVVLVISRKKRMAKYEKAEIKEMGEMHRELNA
How it was run: (§1)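 Binders tested on HEK293 cells displaying the DLL3 subdomain construct; bound molecules detected by flow cytometry using PE-conjugated anti-human secondary antibody. Negative control: cells with secondary antibody only.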

EGF4+5 = molecular target: T2, EGF4+5; assay: as above
T2 construct: also called Hu DLL3 EGF4+5 on HEK293 cells
T2 membrane-anchored DLL3 subdomain construct: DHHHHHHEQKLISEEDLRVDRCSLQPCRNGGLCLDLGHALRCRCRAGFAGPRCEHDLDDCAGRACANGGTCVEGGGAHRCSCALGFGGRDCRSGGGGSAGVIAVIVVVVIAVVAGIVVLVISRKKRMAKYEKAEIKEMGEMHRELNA
How it was run: as §1

EGF3+4 = molecular target: T3, EGF3+4; assay: as above
T3 construct: also called Hu DLL3 EGF3+4 on HEK293 cells
T3 membrane-anchored DLL3 subdomain construct: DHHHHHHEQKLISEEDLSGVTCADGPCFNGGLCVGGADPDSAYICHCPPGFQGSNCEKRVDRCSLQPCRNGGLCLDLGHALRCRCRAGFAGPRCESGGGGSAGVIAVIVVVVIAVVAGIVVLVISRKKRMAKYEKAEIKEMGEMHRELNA
How it was run: as §1

EGF2+3 = molecular target: T4, EGF2+3; assay: as above
T4 construct: also called Hu DLL3 EGF2+3 on HEK293 cells
T4 membrane-anchored DLL3 subdomain construct: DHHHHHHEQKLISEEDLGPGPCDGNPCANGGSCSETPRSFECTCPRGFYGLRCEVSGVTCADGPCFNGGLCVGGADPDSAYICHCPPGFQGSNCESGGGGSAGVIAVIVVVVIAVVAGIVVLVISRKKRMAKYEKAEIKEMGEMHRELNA
How it was run: as §1

[1] = molecular target: T5, trypsin inhibitor from glycine max soybean (Glycine max (soybean)); assay: SPR (Biacore T200), trypsin inhibitor on CM5 chip, sample at 1 µM
T5 construct: also called Tryp
T5 sequence (P01070 25-205): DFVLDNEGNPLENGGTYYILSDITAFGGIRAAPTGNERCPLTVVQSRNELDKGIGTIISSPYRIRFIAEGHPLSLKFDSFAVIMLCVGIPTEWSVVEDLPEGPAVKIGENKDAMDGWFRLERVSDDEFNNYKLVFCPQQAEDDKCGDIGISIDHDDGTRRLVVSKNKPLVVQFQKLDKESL
Excerpt: To prepare the surface for the non-specific binding experiment, chicken egg white lysozyme and trypsin inhibitor from glycine max soybean were coupled manually to a series S CM5 chip with the surface density of 3000-5000 RU using the amine coupling kit according to the manufacture instructions.

Human CD3 E+G HuFc-6xHis = molecular target: T6, Human CD3 E+G HuFc-6xHis (human); assay: SPR (ProteOn XPR36), HuCD3E_HuCD3G-Fc amine-coupled, bispecific as analyte, Example 4B
T6 construct: also called hu CD3εγ-Fc
T6 sequence (chain, as listed by the source limits assumed): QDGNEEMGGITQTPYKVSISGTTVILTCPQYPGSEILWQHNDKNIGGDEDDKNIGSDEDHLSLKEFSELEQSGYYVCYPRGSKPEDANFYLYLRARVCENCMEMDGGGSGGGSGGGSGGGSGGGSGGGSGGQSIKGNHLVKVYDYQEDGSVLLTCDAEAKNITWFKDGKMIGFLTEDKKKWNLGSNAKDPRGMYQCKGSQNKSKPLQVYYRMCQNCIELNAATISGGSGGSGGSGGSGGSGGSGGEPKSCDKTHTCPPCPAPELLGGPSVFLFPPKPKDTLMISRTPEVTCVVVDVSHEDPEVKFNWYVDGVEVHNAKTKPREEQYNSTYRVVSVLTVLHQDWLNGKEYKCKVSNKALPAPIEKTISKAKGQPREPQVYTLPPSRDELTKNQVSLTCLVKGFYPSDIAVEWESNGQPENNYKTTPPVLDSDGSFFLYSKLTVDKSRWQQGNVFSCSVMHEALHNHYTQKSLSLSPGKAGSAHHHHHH
How it was run: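 SPR kinetics with the bispecific constructs flowed as analyte over a directly amine-coupled (pH 4.5 acetate) human CD3εγ-Fc surface. Association runs 600 s and dissociation 1800 s, at 30 μl/min in PBS-T-EDTA.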

B1: DLL3#2/CD3#1 (bispecific antibody, human IgG1, kappa, lambda, L234A L235A)
chain 1: DIQMTQSPSAMSASVGDRVTITCRASQGISNYLAWFQQKPGKVPEPLIYAASSLQSGVPSRFSGSGSVTEFTLTISSLQPEDFATYYCLQHNSSPYTFGQGTKLEIKRTVAAPSVFIFPPSDEQLKSGTASVVCLLNNFYPREAKVQWKVDNALQSGNSQESVTEQDSKDSTYSLSSTLTLSKADYEKHKVYACEVTHQGLSSPVTKSFNRGECGGGGSEGKSSGSGSESKSTEGKSSGSGSESKSTGGGGSQVQLVQSGAEVKKPGASVKVSCKASGYTFTSYYMHWVRQAPGQGLEWMGIINPSGGSTSYAQKFQGRVTMTRDTSTSTVYMELSSLRSEDTAVYYCARGEAVGGNYYYYGMDVWGQGTTVTVSSASTKGPSVFPLAPSSKSTSGGTAALGCLVKDYFPEPVTVSWNSGALTSGVHTFPAVLQSSGLYSLSSVVTVPSSSLGTQTYICNVNHKPSNTKVDKRVEPKSCDKTHTCPPCPAPEAAGGPSVFLFPPKPKDTLMISRTPEVTCVVVDVSHEDPEVKFNWYVDGVEVHNAKTKPREEQYNSTYRVVSVLTVLHQDWLNGKEYKCKVSNKALPAPIEKTISKAKGQPREPQVYTLPPSREEMTKNQVSLWCLVKGFYPSDIAVEWESNGQPENNYKTTPPVLDSDGSFFLYSKLTVDKSRWQQGNVFSCSVMHEALHNHYTQKSLSLSPG
chain 2: EAVVTQEPSLTVSPGGTVTLTCRSSTGAVTTSNYANWVQEKPGQLPRGLIGGTNKRAPWVPARFSGSLLGGKAALTLSGAQPEDEAEYFCALWYSNLWVFGGGTKLTVLGQPKAAPSVTLFPPSSEELQANKATLVCLISDFYPGAVKVAWKADGSPVNTGVETTTPSKQSNNKYAASSYLSLTPEQWKSHRSYSCQVTHEGSTVEKTVAPAECSGGGGSEGKSSGSGSESKSTEGKSSGSGSESKSTGGGGSEVQLVESGGGLVQPGGSLKLSCAASGFTFNTYAMNWVRQAPGKGLEWVARIRSKYNNYATYYADSVKDRFTISRDDSKNTAYLQMNNLKTEDTAVYYCVRHGNFGNSYVSWFAYWGQGTLVTVSAASTKGPSVFPLAPSSKSTSGGTAALGCLVKDYFPEPVTVSWNSGALTSGVHTFPAVLQSSGLYSLSSVVTVPSSSLGTQTYICNVNHKPSNTKVDKRVEPKSCDKTHTCPPCPAPEAAGGPSVFLFPPKPKDTLMISRTPEVTCVVVDVSHEDPEVKFNWYVDGVEVHNAKTKPREEQYNSTYRVVSVLTVLHQDWLNGKEYKCKVSNKALPAPIEKTISKAKGQPREPQVYTLPPSREEMTKNQVSLSCAVKGFYPSDIAVEWESNGQPENNYKTTPPVLDSDGSFFLVSKLTVDKSRWQQGNVFSCSVMHEALHNRFTQKSLSLSPG
notes: Heterodimer of one DLL3 chain and one CD3 chain (scFab-Fc, knob-in-hole)
Does B1 bind (EGF5+6)?
Result: no binding (tested: 1.6 nM)

Does B1 bind (EGF4+5)?
Result: no binding (tested: 1.6 nM)

Does B1 bind (EGF3+4)?
Result: no binding (tested: 1.6 nM)

Does B1 bind (EGF2+3)?
Result: no binding (tested: 1.6 nM)

What about the “Non-specific binding (RU)” value [1] of the same binder?
Its value is 2 RU.

And the Kd (Human CD3 E+G HuFc-6xHis)?
Its Kd is 3 nM.

B2: DLL3#3/CD3#1 (bispecific antibody, human IgG1, kappa, lambda, L234A L235A)
chain 1: DIQMTQSPSAMSASVGDRVTITCRASQGISNYLVWFQQKPGKAPKRLIYAVSSLYSGVPSRFSGSGSGTEFTLTISSLQPEDFATYYCLQHDSYPYTFGQGTKLEIKRTVAAPSVFIFPPSDEQLKSGTASVVCLLNNFYPREAKVQWKVDNALQSGNSQESVTEQDSKDSTYSLSSTLTLSKADYEKHKVYACEVTHQGLSSPVTKSFNRGECGGGGSEGKSSGSGSESKSTEGKSSGSGSESKSTGGGGSQVQLVQSGAEVKKPGASVKVSCKASGYTFTSYYVHWVRQAPGQGLEWMVIINPGGGTTSYAQKFLGRVTMTRDTSTNTVYMELKSLRSEDTAVYYCARGEAVTGNYFYYGMDVWGQGTTVTVSSASTKGPSVFPLAPSSKSTSGGTAALGCLVKDYFPEPVTVSWNSGALTSGVHTFPAVLQSSGLYSLSSVVTVPSSSLGTQTYICNVNHKPSNTKVDKRVEPKSCDKTHTCPPCPAPEAAGGPSVFLFPPKPKDTLMISRTPEVTCVVVDVSHEDPEVKFNWYVDGVEVHNAKTKPREEQYNSTYRVVSVLTVLHQDWLNGKEYKCKVSNKALPAPIEKTISKAKGQPREPQVYTLPPSREEMTKNQVSLWCLVKGFYPSDIAVEWESNGQPENNYKTTPPVLDSDGSFFLYSKLTVDKSRWQQGNVFSCSVMHEALHNHYTQKSLSLSPG
chain 2: EAVVTQEPSLTVSPGGTVTLTCRSSTGAVTTSNYANWVQEKPGQLPRGLIGGTNKRAPWVPARFSGSLLGGKAALTLSGAQPEDEAEYFCALWYSNLWVFGGGTKLTVLGQPKAAPSVTLFPPSSEELQANKATLVCLISDFYPGAVKVAWKADGSPVNTGVETTTPSKQSNNKYAASSYLSLTPEQWKSHRSYSCQVTHEGSTVEKTVAPAECSGGGGSEGKSSGSGSESKSTEGKSSGSGSESKSTGGGGSEVQLVESGGGLVQPGGSLKLSCAASGFTFNTYAMNWVRQAPGKGLEWVARIRSKYNNYATYYADSVKDRFTISRDDSKNTAYLQMNNLKTEDTAVYYCVRHGNFGNSYVSWFAYWGQGTLVTVSAASTKGPSVFPLAPSSKSTSGGTAALGCLVKDYFPEPVTVSWNSGALTSGVHTFPAVLQSSGLYSLSSVVTVPSSSLGTQTYICNVNHKPSNTKVDKRVEPKSCDKTHTCPPCPAPEAAGGPSVFLFPPKPKDTLMISRTPEVTCVVVDVSHEDPEVKFNWYVDGVEVHNAKTKPREEQYNSTYRVVSVLTVLHQDWLNGKEYKCKVSNKALPAPIEKTISKAKGQPREPQVYTLPPSREEMTKNQVSLSCAVKGFYPSDIAVEWESNGQPENNYKTTPPVLDSDGSFFLVSKLTVDKSRWQQGNVFSCSVMHEALHNRFTQKSLSLSPG
notes: as for B1
Which results are given for B2?
binding result (EGF5+6): no binding (tested: 1.6 nM); binding result (EGF4+5): no binding (tested: 1.6 nM); binding result (EGF3+4): no binding (tested: 1.6 nM); binding result (EGF2+3): no binding (tested: 1.6 nM); Non-specific binding (RU) [1]: 85 RU; Kd (Human CD3 E+G HuFc-6xHis): 2 nM

B3: DLL3#3/CD3#2 (bispecific antibody, human IgG1, kappa, lambda, L234A L235A)
chain 1: DIQMTQSPSAMSASVGDRVTITCRASQGISNYLVWFQQKPGKAPKRLIYAVSSLYSGVPSRFSGSGSGTEFTLTISSLQPEDFATYYCLQHDSYPYTFGQGTKLEIKRTVAAPSVFIFPPSDEQLKSGTASVVCLLNNFYPREAKVQWKVDNALQSGNSQESVTEQDSKDSTYSLSSTLTLSKADYEKHKVYACEVTHQGLSSPVTKSFNRGECGGGGSEGKSSGSGSESKSTEGKSSGSGSESKSTGGGGSQVQLVQSGAEVKKPGASVKVSCKASGYTFTSYYVHWVRQAPGQGLEWMVIINPGGGTTSYAQKFLGRVTMTRDTSTNTVYMELKSLRSEDTAVYYCARGEAVTGNYFYYGMDVWGQGTTVTVSSASTKGPSVFPLAPSSKSTSGGTAALGCLVKDYFPEPVTVSWNSGALTSGVHTFPAVLQSSGLYSLSSVVTVPSSSLGTQTYICNVNHKPSNTKVDKRVEPKSCDKTHTCPPCPAPEAAGGPSVFLFPPKPKDTLMISRTPEVTCVVVDVSHEDPEVKFNWYVDGVEVHNAKTKPREEQYNSTYRVVSVLTVLHQDWLNGKEYKCKVSNKALPAPIEKTISKAKGQPREPQVYTLPPSREEMTKNQVSLWCLVKGFYPSDIAVEWESNGQPENNYKTTPPVLDSDGSFFLYSKLTVDKSRWQQGNVFSCSVMHEALHNHYTQKSLSLSPG
chain 2: EAVVTQEPSLTVSPGGTVTLTCRSSTGAVTTSNYANWVQEKPGQLPRGLIGGTNKRAPWVPARFSGSLLGGKAALTLSGAQPEDEAEYFCALWYSNLWVFGGGTKLTVLGQPKAAPSVTLFPPSSEELQANKATLVCLISDFYPGAVKVAWKADGSPVNTGVETTTPSKQSNNKYAASSYLSLTPEQWKSHRSYSCQVTHEGSTVEKTVAPAECSGGGGSEGKSSGSGSESKSTEGKSSGSGSESKSTGGGGSEVQLVESGGGLVQPGGSLKLSCAASGFTFNTYAMNWVRQAPGKGLEWVARIRSKYINYATYYADSVKDRFTISRDDSKNTAYLQMNNLKTEDTAVYYCVRHGNFGNSYVSWFAYWGQGTLVTVSAASTKGPSVFPLAPSSKSTSGGTAALGCLVKDYFPEPVTVSWNSGALTSGVHTFPAVLQSSGLYSLSSVVTVPSSSLGTQTYICNVNHKPSNTKVDKRVEPKSCDKTHTCPPCPAPEAAGGPSVFLFPPKPKDTLMISRTPEVTCVVVDVSHEDPEVKFNWYVDGVEVHNAKTKPREEQYNSTYRVVSVLTVLHQDWLNGKEYKCKVSNKALPAPIEKTISKAKGQPREPQVYTLPPSREEMTKNQVSLSCAVKGFYPSDIAVEWESNGQPENNYKTTPPVLDSDGSFFLVSKLTVDKSRWQQGNVFSCSVMHEALHNRFTQKSLSLSPG
notes: as for B1
Does B3 bind (EGF5+6)?
Result: no binding (tested: 1.6 nM)

Does B3 bind (EGF4+5)?
Result: no binding (tested: 1.6 nM)

Does B3 bind (EGF3+4)?
Result: no binding (tested: 1.6 nM)

Does B3 bind (EGF2+3)?
Result: no binding (tested: 1.6 nM)

What about the “Non-specific binding (RU)” value [1] of the same binder?
Its value is 36 RU.

And the Kd (Human CD3 E+G HuFc-6xHis)?
The Kd was 7 nM.
